In general, stoichiometry N refers to a count of units in the complex or per binding partner.

Where “and” joins values, the source holds several entries; their conditions need not be identical. Equal values may be shown once.

Data on seven substances can be found in paper PMC8827656.

Assay [1] addresses photosystem II (PSII) complex from FRL-acclimated Chroococcidiopsis thermalis PCC 7203 (C. thermalis PCC 7203 (endogenous in the cells)). The assay is described as follows: sucrose gradient sedimentation + negative-stain TEM; thylakoid membranes solubilised with 1% DDM, 5-20% sucrose gradients with 0.05% DDM, 140,000g for 12-16 h at 4°C; bands negatively stained with uranyl acetate and imaged by TEM.

Assay [2] deals with photosystem I (PSI) complex from FRL-acclimated Synechococcus sp. PCC 7335 (Synechococcus sp. PCC 7335 (endogenous in the cells)). Description: sucrose gradient sedimentation; thylakoid membranes solubilised with 1% DDM, 5-20% sucrose gradients with 0.05% DDM, 140,000g for 12-16 h at 4°C; bands assigned by position (fig. S3B), no TEM told.
For assay [3] the target is unchanged. Description: atomic force microscopy; thylakoid membrane patches from 20-50% sucrose gradients with 0.1% digitonin, adsorbed on mica; PeakForce mode under liquid; 10 mM Hepes pH 7.5, 100 mM KCl; oligomer assigned from heights, nearest-neighbour angles and lateral distances.
Assay [4] has as its target photosystem I (PSI) complex from FRL-acclimated Chlorogloeopsis fritschii PCC 9212 (C. fritschii PCC 9212 (endogenous in the cells)). Description: sucrose gradient sedimentation + negative-stain TEM; thylakoid membranes solubilised with 1% DDM, 5-20% sucrose gradients with 0.05% DDM, 140,000g for 12-16 h at 4°C; bands negatively stained with uranyl acetate and imaged by TEM.

The target is the same in assay [5]. Description: atomic force microscopy; thylakoid membrane patches from 20-50% sucrose gradients with 0.1% digitonin, adsorbed on mica; PeakForce mode under liquid; 10 mM Hepes pH 7.5, 100 mM KCl; oligomer assigned from heights, nearest-neighbour angles and lateral distances.
In assay [6] the target is photosystem I (PSI) complex from white-light-grown Synechococcus sp. PCC 7335 (Synechococcus sp. PCC 7335 (endogenous in the cells)). Description: sucrose gradient sedimentation; thylakoid membranes solubilised with 1% DDM, 5-20% sucrose gradients with 0.05% DDM, 140,000g for 12-16 h at 4°C; bands assigned by position (fig. S3B), no TEM told.
Assay [7] shares this target. Description: atomic force microscopy; thylakoid membrane patches from 20-50% sucrose gradients with 0.1% digitonin, adsorbed on mica; PeakForce mode under liquid; 10 mM Hepes pH 7.5, 100 mM KCl; oligomer assigned from heights, nearest-neighbour angles and lateral distances.
Assay [8] shares this target. Described as above. This is another data set of the same source.
The target in assay [9] is photosystem I (PSI) complex from FRL-acclimated Chroococcidiopsis thermalis PCC 7203 (C. thermalis PCC 7203 (endogenous in the cells)). Description: native gel or EMSA; BN-PAGE; thylakoid membranes solubilised with 0.4 or 2% DDM, 4-16% NativePAGE gels.
The target is the same in assay [10]. The assay is described as follows: sucrose gradient sedimentation + negative-stain TEM; thylakoid membranes solubilised with 1% DDM, 5-20% sucrose gradients with 0.05% DDM, 140,000g for 12-16 h at 4°C; bands negatively stained with uranyl acetate and imaged by TEM.
For assay [11] the target is unchanged. Description: atomic force microscopy; thylakoid membrane patches from 20-50% sucrose gradients with 0.1% digitonin, adsorbed on mica; PeakForce mode under liquid; 10 mM Hepes pH 7.5, 100 mM KCl; oligomer assigned from heights, nearest-neighbour angles and lateral distances.
Assay [12] has as its target photosystem I (PSI) complex from white-light-grown Chroococcidiopsis thermalis PCC 7203 (C. thermalis PCC 7203 (endogenous in the cells)). The assay is described as follows: native gel or EMSA; BN-PAGE; thylakoid membranes solubilised with 0.4 or 2% DDM, 4-16% NativePAGE gels. Background: A gel shift assay detects complexes by their altered migration in electrophoresis.

Assay [13] shares this target. Description: atomic force microscopy; thylakoid membrane patches from 20-50% sucrose gradients with 0.1% digitonin, adsorbed on mica; PeakForce mode under liquid; 10 mM Hepes pH 7.5, 100 mM KCl; oligomer assigned from heights, nearest-neighbour angles and lateral distances.
Assay [14] has as its target photosystem I (PSI) complex from white-light-grown Chlorogloeopsis fritschii PCC 9212 (C. fritschii PCC 9212 (endogenous in the cells)). Description: sucrose gradient sedimentation + negative-stain TEM; thylakoid membranes solubilised with 1% DDM, 5-20% sucrose gradients with 0.05% DDM, 140,000g for 12-16 h at 4°C; bands negatively stained with uranyl acetate and imaged by TEM.

Assay [15] shares this target. Description: atomic force microscopy; thylakoid membrane patches from 20-50% sucrose gradients with 0.1% digitonin, adsorbed on mica; PeakForce mode under liquid; 10 mM Hepes pH 7.5, 100 mM KCl; oligomer assigned from heights, nearest-neighbour angles and lateral distances.

For the substance “photosystem II (PSII) complex from FRL-acclimated Chroococcidiopsis thermalis PCC 7203”, the stoichiometry N in assay [1] was determined as 2.
As to “photosystem I (PSI) complex from FRL-acclimated Synechococcus sp. PCC 7335”, the stoichiometry N in assay [2] is 3 and 2; in assay [3] it was 3.
With “photosystem I (PSI) complex from FRL-acclimated Chlorogloeopsis fritschii PCC 9212”, the stoichiometry N in assay [4] and in assay [5] was 3 in each case.
Consider “photosystem I (PSI) complex from white-light-grown Synechococcus sp. PCC 7335”, for which the stoichiometry N in assay [6] was 2 and 3 and 4; in [7], 2; in assay [8] it was 3.
As to “photosystem I (PSI) complex from FRL-acclimated Chroococcidiopsis thermalis PCC 7203”, the stoichiometry N in assay [9] was 3; in [10] it was 3 and 2; in [11], 3.
As to “photosystem I (PSI) complex from white-light-grown Chroococcidiopsis thermalis PCC 7203”, the stoichiometry N in assay [12] and in assay [13] was 2 in each case.
With “photosystem I (PSI) complex from white-light-grown Chlorogloeopsis fritschii PCC 9212”, the stoichiometry N in assay [14] is 4 and 2; in [15] it was 2.
